From PMC3005984, “Identification and Partial Characterization of an L-Tyrosine Aminotransferase (TAT) from Arabidopsis thaliana” (Biochemistry Research International, 2010)

Assays:
Assay type in all cases: biochemical, Arabidopsis thaliana
[1] = substrate: N[C@@H](Cc1ccc(O)cc1)C(=O)O; experiment: forward assay, 4-hydroxyphenylpyruvate at A331, nonlinear regression; settings: acceptor 2-ketoglutarate at saturation, 100 mM HEPES-NaOH pH 8.2, 30°C
Text: forward assay, 4-hydroxyphenylpyruvate at A331, nonlinear regression on At5g36160 (L-tyrosine aminotransferase, TAT)

[2] = substrate: N[C@@H](Cc1ccccc1)C(=O)O; experiment: forward assay, phenylpyruvate at A320, nonlinear regression; settings: acceptor 2-ketoglutarate at saturation, 100 mM HEPES-NaOH pH 8.2, 30°C
Text: forward assay, phenylpyruvate at A320, nonlinear regression on At5g36160 (L-tyrosine aminotransferase, TAT)

[3] = substrate: O=C(O)CCC(=O)C(=O)O; experiment: forward assay, product absorbance, nonlinear regression; settings: amino donor at saturation (donor for this constant only in supplement), 100 mM HEPES-NaOH pH 8.2, 30°C
Text: forward assay, product absorbance, nonlinear regression on At5g36160 (L-tyrosine aminotransferase, TAT)

[4] = substrate: O=C(O)C(=O)Cc1ccccc1; experiment: reverse assay, coupled to 2-ketoglutarate dehydrogenase, NADH at A340, nonlinear regression; settings: amino donor glutamate at saturation, 100 mM HEPES-NaOH pH 8.2, 30°C
Text: (§1) reverse assay, coupled to 2-ketoglutarate dehydrogenase, NADH at A340, nonlinear regression on At5g36160 (L-tyrosine aminotransferase, TAT)

[5] = substrate: N[C@@H](CCC(=O)O)C(=O)O; experiment: as above; settings: amino acceptor at saturation (acceptor for this constant only in supplement), 100 mM HEPES-NaOH pH 8.2, 30°C
Text: as §1

[6] = substrate: O=C(O)C(=O)Cc1ccc(O)cc1; experiment: as above; settings: amino donor glutamate at saturation, 100 mM HEPES-NaOH pH 8.2, 30°C
Text: as §1

B1: At5g36160 (L-tyrosine aminotransferase, TAT) (Arabidopsis thaliana) (protein)
chain: MGENGAKRWNFGANEVVERSNSLTIRDYLNTLINCLDGGDVRPVIPLGHGDPSPFPSFRTDQAAVEAICDAVRSTKFNNYSSSSGVPVARKAVAEYLSSDLSYQISPNDVHITAGCVQAIEILISALAIPGANILLPRPTYPMYDSRAAFCQLEVRYFDLLPENGWDVDLDGVEALADDKTVAILVINPCNPCGNVFSRQHLQKIAETACKLGILVIADEVYDHFAFGDKPFVSMAEFAELVPVIVLGAISKRWFVPGWRLGWMVTLDPHGIMKDSGFVQTLINVVNMSTDPATFIQGAMPDIIGNTKEEFFSSKLEMVKKCAEICYEELMKIPCITCPCKPEGSMFTMVKLNFSLLEDISDDLDFCSKLAKEESMIILPGQAVGLKNWLRITFAVELELLIEGFSRLKNFTERHSKNQP
notes: full-length cDNA in pET30a, N-terminal His6 and S-tag kept, E. coli BL21-CodonPlus-RIPL, Talon purified, about 52 kDa on SDS-PAGE; EC 2.6.1.5
- Km [1]: 190 ± 160 µM
- kcat [1]: 0.08 s⁻¹
- Km [2]: 840 ± 200 µM
- kcat [2]: 0.08 s⁻¹
- Km [3]: 1200 ± 270 µM
- kcat [3]: 0.08 s⁻¹
- Km [4]: 130 ± 60 µM
- kcat [4]: 6.1 s⁻¹
- Km [5]: 1400 ± 160 µM
- kcat [5]: 6.1 s⁻¹
- Km [6]: 220 ± 50 µM
- kcat [6]: 6.1 s⁻¹
